From doi:10.1101/797027 (bioRxiv, 2019)
Each block holds one binder with its values, some of them ahead of it.

Columns and labels:
ubiquitin = ubiquitin (UniProt P0CG48 1-76); test: NMR titration
[1] = biological target: T1, hRpn10^305–377 (RAZUL, Rpn10 AZUL binding domain) (human, UniProt P55036 305-377); test: ITC
T1 sequence (looked up): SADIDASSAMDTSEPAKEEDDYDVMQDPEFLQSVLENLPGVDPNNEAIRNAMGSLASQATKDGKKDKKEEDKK

GST-hRpn10^305–377 = biological target: T2, GST-hRpn10^305–377 (human, UniProt P55036 305-377); test: SPR
T2 sequence (looked up): T1 sequence (looked up)

- binding result (ubiquitin): binds
B1: His-hRpn10^196–377 (domain or fragment)
chain: MLGLGASDFEFGVDPSADPELALALRVSMEEQRQRQEEEARRAAAASAAEAGIATTGTEDSDDALLKMTISQQEFGRTGLPDLSSMTEEEQIAYAMQMSLQGAEFGQAESADIDASSAMDTSEPAKEEDDYDVMQDPEFLQSVLENLPGVDPNNEAIRNAMGSLASQATKDGKKDKKEEDKK

- Kd [1]: 11.6 nM
- Kd (GST-hRpn10^305–377): 8.1 nM
B2: E6AP AZUL domain, E6AP[24–87] (domain or fragment, human, UniProt Q05086 24-87, looked up)
chain: MKRAAAKHLIERYYHQLTEGCGNEACTNEFCASCPTFLRMDNNAAAIKALELYKINAKLCDPHP
